Results as given in publication PMC5458090, “Decoding NADPH oxidase 4 expression in human tumors” (Redox Biology, 2017).

Tests used:
[1] = molecular target: T1, MycDDK-HsNOX4 (human NADPH oxidase 4) (Homo sapiens, UniProt Q9NPH5); experiment: Western blot; whole-cell extracts (RIPA buffer) loaded without boiling on a 4-20% Tris glycine gel, transferred to nitrocellulose, incubated with primary antibody overnight; fibroblasts treated with TGF-β1, COV362 cells with NOX4 siRNA; conditions: one partner purified
T1 construct: NADPH oxidase 4 (NOX4), human, from plasmid pCMV-MycDDK-HsNOX4; also called MycDDK-NOX4; source: HEK293, stably (clones WT1, WT2) or transiently transfected; in whole-cell extract or on/in cells; not shown: Myc, N-terminal, kept; DDK, N-terminal, kept

endogenous human NOX4 = molecular target: T2, endogenous human NOX4 (Homo sapiens (endogenous), UniProt Q9NPH5); experiment: as above; conditions: one partner purified
T2 construct: NADPH oxidase 4 (NOX4), endogenous in human cell lines and human tissues; also called endogenous NOX4; NOX4 protein; source: endogenous: CCL-210 lung fibroblast and COV362 whole-cell extracts; COV362 and OVCAR3 membrane fractions; COV362 cells; formalin-fixed human tissues (BioMax TMA MC6163)
T2 sequence (Q9NPH5 whole entry): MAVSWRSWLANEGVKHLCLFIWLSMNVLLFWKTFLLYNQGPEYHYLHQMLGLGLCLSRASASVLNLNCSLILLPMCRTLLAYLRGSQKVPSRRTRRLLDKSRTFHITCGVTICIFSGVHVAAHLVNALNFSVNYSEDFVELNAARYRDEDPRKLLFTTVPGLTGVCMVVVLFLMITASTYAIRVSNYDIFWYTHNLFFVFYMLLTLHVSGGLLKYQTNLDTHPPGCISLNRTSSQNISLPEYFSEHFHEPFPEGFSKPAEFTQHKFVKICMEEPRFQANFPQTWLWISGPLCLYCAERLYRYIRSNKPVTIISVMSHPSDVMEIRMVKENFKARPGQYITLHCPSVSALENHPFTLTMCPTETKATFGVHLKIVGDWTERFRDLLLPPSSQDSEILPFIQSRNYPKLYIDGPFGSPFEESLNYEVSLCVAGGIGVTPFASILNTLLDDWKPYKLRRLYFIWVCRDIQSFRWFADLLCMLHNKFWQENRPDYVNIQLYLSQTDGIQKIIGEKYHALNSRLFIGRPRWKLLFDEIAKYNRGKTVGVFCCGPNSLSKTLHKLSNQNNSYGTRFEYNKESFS

T1 sequence (Q9NPH5 whole entry): as above

B1: NOX4 rabbit monoclonal antibody 47-6 (antibody, V domains shown)
VH: QSVEESGGRLVTPGGSLTLTCTVSGIDLSSNSVTWVRQAPGEGLKWIGIISDSHRAYYATWAKGRFTISKTSSTTVDLKMTSLTTGDTATYFCVVGNNIWGPGTLVTVSS
VL: AQVLTQTASPVSAAVGGTVTINCQASESVYSDNRLSWFQQKPGQPPKLLIYYASTLASGVPSRVKGSGSGTQFTLTISDLECDDAATYYCAGGFSNNIYEFGGGTEVVVK
notes: Rabbit monoclonal raised against fixed NOX4-overexpressing HEK293 cells and a peptide of human NOX4 amino acids 209-282 (E-loop); also called mAb 47-6; 47-6 mAb
binding result [1]: binds | binding result (endogenous human NOX4): binds
